Legend:
Assay type in all cases: cell-based
[1] = test system: M1 cells; assay: Protein tyrosine phosphorylation after anti-gp130 immunoprecipitation; conditions: M1 cells treated with CLC or LIF supernatant; band of apparent molecular mass 32 kDa
Description: Because of the wide range of known factors capable of stimulating tyrosine kinase activity, identifying whether CLC or a molecule induced by CLC is capable of activating tyrosine kinase signal transduction pathways is of interest. Therefore, the following protocol is designed to identify such molecules capable of activating the tyrosine kinase signal transduction pathways.
Seed NIH-3T3 cells in 15 cm^2 cell culture plates in DMEM supplemented with Pen/Strep, 10% FBS, 25 mM Hepes. […] At the point the experiment begins, the cells should be 80-90% confluent. Collect M1 cells in 50 ml tube and centrifuge 1000 rpm for 5 min. Resuspend the cell pellet in “quiescing medium” which is RPMI supplemented with Pen/Strep, glutamine. (It is important to note that quiescing medium contains neither serum nor growth factors.) Centrifuge again at 1000 rpm for 5 min to wash the cells. Again, resuspend the cells in quiescing medium. Incubate the M1 cells in quiescing medium for 16 hours at 37° C.
Pre-warm quiescing medium (for Ml cells) and a metal tube rack to 37° C. Pre-cool quiescing media (for NIH-3T3 cells) and sterile Eppendorf tubes containing 0.5 ml of sample. […] Resuspend M1 cells to 5.0×10^7 cells per 0.5 ml quiescing media. Place all tubes on per warmed metal rack and leave at 37° C. until ready to begin. Add samples to these pre-aliquoted tubes. […]

[2] = test system: SRE element in TF-1 cells; assay: SRE/SEAP reporter assay in TF-1 cells; conditions: supernatants from 293T cells transfected with CLC expression vector, SEAP reporter
Excerpt: (§1) Therefore, activation of the Jaks-STATs pathway, reflected by the binding of the GAS or the ISRE element, can be used to indicate proteins involved in the proliferation and differentiation of cells. For example, growth factors and cytokines are known to activate the Jaks-STATs pathway (see Table below). Thus, by using GAS elements linked to reporter molecules, activators of the Jaks-STATs pathway can be identified. Serum response elements (SREs) play a similar role in signal transduction although the DNA sequence which mediates a serum response is unique from the GAS or ISRE sequences.
(§2) Other constructs can be made using the above description and replacing GAS with a different promoter sequence. For example, construction of reporter molecules containing NF-kB and EGR promoter sequences are described in Examples 6 and 8. However, many other promoters can be substituted using the protocols described in these Examples. For instance, SRE, IL-2, NFAT, or Osteocalcin promoters can be substituted, alone or in combination (e.g., GAS/NF-κB/EGR, GAS/NF-κB, Il-2/NFAT, or NF-κB/GAS). Similarly, other cell lines can be used to test reporter construct activity, such as HeLa (epithelial), HUVEC (endothelial), Reh (B-cell), Saos-2 (osteoblast), HUVAC (aortic) or cardiomyocyte.
(§3) Separate the Optiplates to avoid uneven heating.
(§4) An increase in chemiluminescence indicates reporter activity.

[3] = test system: GAS element in M1 cells; assay: SEAP reporter assay, SRE experiment repeated in M1 cells; conditions: M1 cells replacing TF-1 cells, supernatants from 293T cells transfected with CLC expression vector
Excerpt: as §1, §2, §3, §4

[4] = test system: GAS element in TF-1 cells; assay: GAS/SEAP reporter assay in TF-1 cells; conditions: GAS/SEAP construct in TF-1 cells; supernatants from 293T cells transfected with CLC expression construct
Excerpt: (§5) The sequence of the 5' primer is: [NT] ID NO:16). […] The sequence of the 3' primer is: [NT] ID NO:17). […] Separate the Optiplates to avoid uneven heating. […] An increase in chemiluminescence indicates reporter activity.

[5] = test system: GAS element in M1 cells; assay: GAS/SEAP reporter assay in M1 cells; conditions: GAS/SEAP construct in M1 cells; supernatants from 293T cells transfected with CLC expression construct
Excerpt: as §5

[6] = test system: M1 cells; assay: M1 cell proliferation by BrdU incorporation; conditions: dose of 100 μL, 72 hours
Description: The effect of CLC on cellular proliferation can be assayed in M1 cells by BrdU incorporation. 1×10^4 cells/100 μL are dispensed into 96-well cell culture plates and labeled with 10 μL BrdU. CLC is added to the cells at several doses (0, 5, 25, and 100 μL) and LIF is added to the cells as a positive control at a dose of 100 μL. The cells are allowed to grow for 72 hours at 37° C. The amount of BrdU incorporation is determined by the Cell Proliferation ELISA BrdU colorimetric kit (Boehringer Mannheim).

[7] = test system: Primary cardiomyocytes; assay: Cardiac myocyte hypertrophy, cell counts in culture
Description: (§6) Primary cardiomyocytes, primary neuronal cultures, or other cells are plated at a low density and cultured using standard culturing techniques. […] Cultures are evaluated at a point between 48 and 72 hours post-treatment by counting the number of cells in four non-overlapping fields in three independent cultures and averaging the results.

[8] = test system: primary neuronal cultures (sympathetic neuron counts); assay: Neuron counts in primary neuronal cultures
Description: as §6

[9] = counted 48 to 72 hours post-treatment, four fields in three independent cultures, averaged

B1: CLC: human polypeptide named cardiotrophin-like cytokine, IL-6 cytokine family member; tested as supernatant of transfected 293T cells (protein)
chain: MDLRAGDSWGMLACLCTVLWHLPAVPALNRTGDPGPGPSIQKTYDLTRYLEHQLRSLAGTYLNYLGPPFNEPDFNPPRLGAETLPRATVDLEVWRSLNDKLRLTQNYEAYSHLLCYLRGLNRQAATAELRRSLAHFCTSLQGLLGSIAGVMAALGYPLPQPLPGTEPTWTPGPAHSDFLQKMDDFWLLKELQTWLWRSAKDFNRLKKKMQPPAAAVTLHLGAHGF
modifications: homo sapiens; signal (-27)..(-1)
notes: human polypeptide named cardiotrophin-like cytokine, IL-6 cytokine family member; tested as supernatant of transfected 293T cells
band of tyrosine-phosphorylated protein in cell extracts [1]: produced a band of phosphorylated protein | activation of the SRE element over the negative control level [2]: 2.6 fold | induction of the GAS element (SRE experiment repeated) [3]: 3.2 fold | activation of the GAS element [4]: 4.6 fold | induction of the GAS element [5]: 4.5 fold | inhibition of M1 cell proliferation with respect to the negative control [6]: 3.1 fold | No. Active Myocytes [7, 9]: 50 | reduction of cardiomyocyte hypertrophic activity of mock-transfected 293T supernatant ([7]; supernatants from CLC-transfected 293T cells, 48 to 72 hours post-treatment): 2 fold | No. Neurons [8, 9]: 86 | change of sympathetic neuron counts ([8]; samples treated with CLC-transfected supernatants): clear increase
